B1: GST-SERCA-CD3: GST fusion of the CD3 from rat heart SERCA 2a (protein)
chain: GTRRMAKKNAIVRSLPSVETLGCTSVICSDKTGTLTTNQMSVCRMFILDKVEGDTCSLNEFTITGSTYAPIGEVQKDDKPVKCHQYDGLVELATICALCNDSALDYNEAKGVYEKVGEATETALTCLVEKMNVFDTELKGLSKIERANACNSVIKQLMKKEFTLEFSRDRKSMSVYCTPNKPSRTSMSKMFVKGAPEGVIDRCTHIRVGSTKVPMTPGVKQKIMSVIREWGSGSDTLRCLALATHDNPLRREEMHLEDSANFIKYETNLTFVGCVGMLDPPRIEVASSVKLCRQAGIRVIMITGDNKGTAVAICRRIGIFGQDEDVTSKAFTGREFDELSPSAQRDACLNARCFARVEPSHKSKIVEFLQSFDEITAMTGDGVNDAPALKKSEIGIAMGSGTAVAKTASEMVLADDNFSTIVAAVEEGRAIYNNMKQFIRYLISSNV
B2: GST-kinase: GST fusion of Src kinase domain (protein)
chain: QTQGLAKDAWEIPRESLRLEVKLGQGCFGEVWMGTWNGTTRVAIKTLKPGTMSPEAFLQEAQVMKKLRHEKLVQLYAVVSEEPIYIVTEYMSKGSLLDFLKGEMGKYLRLPQLVDMAAQIASGMAYVERMNYVHRDLRAANILVGENLVCKVADFGLARLIEDNEYTARQGAKFPIKWTAPEAALYGRFTIKSDVWSFGILLTELTTKGRVPYPGMVNREVLDQVERGYRMPCPPECPESLHDLMCQCWRKDPEERPTFEYLQAFLEDYFTSTEPQYQPGENL
modifications: left off: a dimerising Fc or GST
notes: GST fusion of Src kinase domain
B3: GST-SH2: GST fusion of Src SH2 domain (protein)
chain: WYFGKITRRESERLLLNPENPRGTFLVRESETTKGAYCLSVSDFDNAKGLNVKHYKIRKLDSGGFYITSRTQFSSLQQLVAYYSKHADGLCHRLTNVC
modifications: left off: a dimerising Fc or GST
notes: GST fusion of Src SH2 domain

Experiments:
Src = molecular target: T1, Src (Sus scrofa, UniProt K7GM45); assay: GST-CD3 pulldown of Src from LLC-PK1 cell lysates; format: binding, pig; conditions: 1 mg LLC-PK1 cell lysates
T1 construct: endogenous in cells; host or cells: LLC-PK1 (pig kidney)
Experimental: FIG. 4C. A Western blot showing that Src was pulled down by GST-CD3 of Na+/K+-ATPase (Na/K) and H+/K+-ATPase (H/K), but not SERCA from 1 mg LLC-PK1 cell lysates.
Cells were lysed in RIPA buffer containing 1% Nonidet P40, 0.25% sodium deoxycholate, 150 mM NaCl, 1 mM EDTA, 1 mM phenylmethylsulfonyl fluoride, 1 mM sodium orthovanadate, 1 mM NaF, 10 μg/ml aprotinin, 10 μg/mlleupeptin, and 50 mM Tris-HCl (pH 7.4). Cell lysates were cleared by centrifugation at 16,000×g for […], and the supernatants (1 mg) were either immunoprecipitated with anti-α1 antibody or incubated with different GST-fusion proteins. The complexes were then pulled down by either protein G agarose or glutathione beads (Ma et al., 2000; Haas et al., 2002) and analyzed by Western blot.

[1] = molecular target: T2, Na+/K+-ATPase/Src complex (Sus scrofa, UniProt P05024); assay: Src pY418 phosphorylation of the Na+/K+-ATPase/Src complex (Western blot); format: biochemical; conditions: 5 μg GST fusion preincubated with 2 μg Na+/K+-ATPase before adding Src (4.5 U)
T2 construct: Na+/K+-ATPase was purified from pig kidney outer medulla using the Jorgensen method; tissue Upstate Biotechnology (Src only); host or cells: pig kidney outer medulla (Na+/K+-ATPase)
Experimental: The Src kinase activity was assayed using a commercial kit (Haas et al., 2000). To determine how Na+/K+-ATPase affects Src kinase activity, the purified Src (4.5 U) was incubated with 5 μg of the purified Na+/K+-ATPase in the Src assay buffer for 30 min at room temperature. Afterward, both control Src or the Na+/K+-ATPase-bound Src were exposed to 10 μM ouabain and Src kinase activity was determined. In other experiments, the Src pY418 was measured by anti-pY418 antibody to indicate Src activation (Ma et al., 2000). To do so, the purified Src (4.5 U) was incubated with different amounts of the purified Na+/K+-ATPase or GST-Na+/K+ATPase constructs in phosphate-buffered saline (PBS) for 30 min at 37° C. Afterward, 2 mM ATP/Mg2+ was added. The reaction continued for 5 min at 37° C. and was stopped by addition of SDS sample buffer.
The purified Na+/K+-ATPase was solubilized in 1% Triton X-100 PBS and centrifuged at 100,000×g for 30 min. The supernatant was collected for the binding assay. GST-fusion proteins (5 μg) were conjugated on glutathione beads and incubated with the solubilized Na+/K+-ATPase in 500 μl PBS in the presence of 0.5% Triton X-100 at room temperature for 30 min. The beads were washed with the same buffer for four times. The bound Na+/K+ATPase was resolved on 10% SDS-PAGE and detected by Western blot. […]

purified Na+/K+-ATPase = molecular target: T3, purified Na+/K+-ATPase (Sus scrofa, UniProt P05024); assay: In vitro GST pulldown binding assay with purified Na+/K+-ATPase; design: species or system pig; conditions: 2 μg purified Na+/K+-ATPase per assay
T3 construct: Na+/K+-ATPase was purified from pig kidney outer medulla using the Jorgensen method; from tissue; host or cells: pig kidney outer medulla
Experimental: The purified Na+/K+-ATPase was solubilized in 1% Triton X-100 PBS and centrifuged at 100,000×g for 30 min. The supernatant was collected for the binding assay. GST-fusion proteins (5 μg) were conjugated on glutathione beads and incubated with the solubilized Na+/K+-ATPase in 500 μl PBS in the presence of 0.5% Triton X-100 at room temperature for 30 min. The beads were washed with the same buffer for four times. The bound Na+/K+ATPase was resolved on 10% SDS-PAGE and detected by Western blot. Reciprocal binding assay using GST-Na+/K+-ATPase constructs (5 μg) and purified Src lacking of first 85 amino acids (200 ng) or His-tagged Src constructs (100 ng) was done similarly. To test if native Na+/K+-ATPase binds Src, the above experiments were repeated in the absence of Triton X-100. To make the Na+/K+-ATPase/Src complex, 2-5 μg of the purified Na+/K+ATPase was incubated with 4.5 U of Src (˜10 ng) in PBS in the absence of Triton X-100 at room temperature for 30 min. The complex was either used for the experiments directly as indicated or collected by centrifugation at 100,000×g for 30 min.

| Molecule | pulldown of Src from LLC-PK1 cell lysates (Src) | Src pY418 in presence of Na+/K+-ATPase [1] | binding to the Na+/K+-ATPase (purified Na+/K+-ATPase) |
| --- | --- | --- | --- |
| B1 | not |  |  |
| B2 |  | significantly increased Src pY418 | Binding |
| B3 |  |  | Binding |
